Assay results taken from article doi:10.1101/2022.10.31.514592 (bioRxiv, 2022).

Assays:
spike WT-6P [1] = molecular target: T1, spike WT-6P (SARS-CoV-2, wildtype (Wuhan-Hu-1 type), UniProt P0DTC2, stabilised, biotinylated (EZ-Link Sulfo-NHS-Biotin) for BLI); assay: BLI
spike BA.1 Omicron-6P = spike BA.1 Omicron-6P (SARS-CoV-2, Omicron BA.1, strain, biotinylated (EZ-Link Sulfo-NHS-Biotin) for BLI); assay: ELISA
spike WT-6P [2] = molecular target: T1, spike WT-6P; assay: ELISA

Binder | binding result (spike WT-6P [1]) | fold increase of ELISA binding compared with spike BA.1-2P (spike BA.1 Omicron-6P) [fold] | binding result (spike WT-6P [2])
S728-1157 IgG (antibody, V domains shown) VH: EVQLVESGGGLVQPGGSLRLSCAASGLLVSRNYMNWVRQAPGKGLEWVSIIYSGGSTFYADSVEGRFTISRDESKNTLYLQMNSLRTDDTAVYYCARDLSDYGGIDCWGQGTLVTVSS VL: ELTQPLSVSMALGQTARISCGGDNVGSQNVHWYQQRPGQAPVLVIYRDSNRPSGIPERFSGSKSGNTATLTISRAQAGDEADYYCQVWDSSTVAFGGGTKLTVL | binds | > 3 | –
S728-1157 Fab (Fab, V domains shown) VH: EVQLVESGGGLVQPGGSLRLSCAASGLLVSRNYMNWVRQAPGKGLEWVSIIYSGGSTFYADSVEGRFTISRDESKNTLYLQMNSLRTDDTAVYYCARDLSDYGGIDCWGQGTLVTVSS VL: ELTQPLSVSMALGQTARISCGGDNVGSQNVHWYQQRPGQAPVLVIYRDSNRPSGIPERFSGSKSGNTATLTISRAQAGDEADYYCQVWDSSTVAFGGGTKLTVL | binds | – | –
S451-1140 IgG (antibody, V domains shown) VH: EVQLVESGGGLVPPGGSLRLSCAASGFIFSNYAMTWVRQAPGKGLEWVSAISGGGGSTDYADSVKGRFTISRDNSKNTLYLQMNSLRAEDTAVYYCAKDLFGSGWSLFDNWGQGTLVTVSS VL: not shown | binds | > 3 | –
S451-1140 Fab (Fab, V domains shown) VH: EVQLVESGGGLVPPGGSLRLSCAASGFIFSNYAMTWVRQAPGKGLEWVSAISGGGGSTDYADSVKGRFTISRDNSKNTLYLQMNSLRAEDTAVYYCAKDLFGSGWSLFDNWGQGTLVTVSS VL: not shown | binds | – | –
S626-161 IgG (antibody, V domains shown) VH: QLQLQESGPGLVKPSEALSLTCTVSGGSISTSNYYWGWIRQPPGKGLEWIGSIYYRGGTHYNPSLKTRVTISVDTSKNQFSLKLSSVTAADTAVYYCARHTYFYDIVGAAVWEPFDIWGQGTMVTVSS VL: not shown | – | > 3 | binds
S626-161 Fab (Fab, V domains shown) VH: QLQLQESGPGLVKPSEALSLTCTVSGGSISTSNYYWGWIRQPPGKGLEWIGSIYYRGGTHYNPSLKTRVTISVDTSKNQFSLKLSSVTAADTAVYYCARHTYFYDIVGAAVWEPFDIWGQGTMVTVSS VL: not shown | binds | – | –
